Experimental data published in patent publication US20230220042A1 (SHANGHAI JIAO TONG UNIVERSITY SCHOOL OF MEDICINE, published 2023).

T1: Biotin-FcγRIIB (human FcγRIIB, Sino Biological) (human, UniProt P31994 43-217, limits assumed, biotin-labeled)
T1 construct: Used at 1 µg/ml with Streptavidin-APC for flow cytometry and sorting; also called CD32b
T1 sequence (looked up): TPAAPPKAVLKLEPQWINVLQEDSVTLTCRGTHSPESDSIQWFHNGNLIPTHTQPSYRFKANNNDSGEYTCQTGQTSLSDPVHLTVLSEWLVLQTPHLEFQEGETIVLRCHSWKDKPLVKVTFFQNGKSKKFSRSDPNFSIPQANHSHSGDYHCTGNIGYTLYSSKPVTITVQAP


Assays:
Biotin-FcγRIIB (human) = Biotin-FcγRIIB (human) (UniProt P31994); experiment: NGS of 3T3 display library Cmix flow-sorted for FcγRIIB binding
[1] = target: T1, Biotin-FcγRIIB (human FcγRIIB, Sino …); experiment: NGS after FACS sort of 3T3-displayed Library4 for biotin-FcγRIIB binding

enrichment factor, percentage after 2nd sorting/percentage after 1st sorting (Biotin-FcγRIIB (human)) | enrichment factor, percentage after 3rd sorting/percentage after 2nd sorting (Biotin-FcγRIIB (human)) | percentage after 1st sorting (Biotin-FcγRIIB (human)) [%] | percentage after 2nd sorting (Biotin-FcγRIIB (human)) [%] | percentage after 3rd sorting (Biotin-FcγRIIB (human)) [%] | enrichment factor, percentage after 1st sorting/percentage before sorting (Biotin-FcγRIIB (human)) | enrichment factor, percentage after 3rd sorting/percentage before sorting (Biotin-FcγRIIB (human)) | increased factor, mutant enrichment factor/wild-type enrichment factor (Biotin-FcγRIIB (human)) | percentage before sorting (Biotin-FcγRIIB (human)) [%] | Enrichment factor (percentage after sorting/percentage before sorting) [1] | Increased factor (enrichment factor/wild-type enrichment factor) [1] | Molecule
64.4 | 0.66 | 0.01 | 0.46 | 0.3 | 16.5 | 695 | 1850 | 0 |  |  | human IgG2 anti-mouse CD40 surface displayed antibody, V234M/S267E/S298G/I332L
 |  |  |  |  |  |  |  |  | 5.05 | 3.38 | human IgG2 anti-mouse CD40 surface displayed antibody, G327A (antibody, name in EU numbering, m1 with this Fc mutation (Eu numbering); copies: 2 + 2) light chain (with the P2A rest): DTVLTQSPALAVSPGERVTISCRASDSVSTLMHWYQQKPGQQPKLLIYLASHLESGVPARFSGSGSGTDFTLTIDPVEADDTATYYCQQSWNDPWTFGGGTKLELKRTVAAPSVFIFPPSDEQLKSGTASVVCLLNNFYPREAKVQWKVDNALQSGNSQESVTEQDSKDSTYSLSSTLTLSKADYEKHKVYACEVTHQGLSSPVTKSFNRGECGSGATNFSLLKQAGDVEENPG heavy chain: EVQLVESDGGLVQPGRSLKLPCAASGFTFSDYYMAWVRQAPTKGLEWVASISYDGSSTYYRDSVKGRFTISRDNAKSTLYLQMDSLRSEDTATYYCGRHSSYFDYWGQGVMVTVSSASTKGPSVFPLAPCSRSTSESTAALGCLVKDYFPEPVTVSWNSGALTSGVHTFPAVLQSSGLYSLSSVVTVPSSNFGTQTYTCNVDHKPSNTKVDKTVERKCCVECPPCPAPPVAGPSVFLFPPKPKDTLMISRTPEVTCVVVDVSHEDPEVQFNWYVDGVEVHNAKTKPREEQFNSTFRVVSVLTVVHQDWLNGKEYKCKVSNKALPAPIEKTISKTKGQPREPQVYTLPPSREEMTKNQVSLTCLVKGFYPSDIAVEWESNGQPENNYKTTPPMLDSDGSFFLYSKLTVDKSRWQQGNVFSCSVMHEALHNHYTQKSLSLSPGKLEPPPSTVSNMATVAVLVVLGAAIVTGAVVAFVMKMRRRNTGGKGGDYALAPGSQTSDLSLPDCKVMVHDPHSLA

More lines, now with the values behind:

Molecule | enrichment factor, percentage after 2nd sorting/percentage after 1st sorting (Biotin-FcγRIIB (human)) | enrichment factor, percentage after 3rd sorting/percentage after 2nd sorting (Biotin-FcγRIIB (human)) | percentage after 1st sorting (Biotin-FcγRIIB (human)) [%] | percentage after 2nd sorting (Biotin-FcγRIIB (human)) [%] | percentage after 3rd sorting (Biotin-FcγRIIB (human)) [%] | enrichment factor, percentage after 1st sorting/percentage before sorting (Biotin-FcγRIIB (human)) | enrichment factor, percentage after 3rd sorting/percentage before sorting (Biotin-FcγRIIB (human)) | increased factor, mutant enrichment factor/wild-type enrichment factor (Biotin-FcγRIIB (human)) | percentage before sorting (Biotin-FcγRIIB (human)) [%] | Enrichment factor (percentage after sorting/percentage before sorting) [1] | Increased factor (enrichment factor/wild-type enrichment factor) [1]
human IgG2 anti-mouse CD40 surface displayed antibody, P233F/V266L/S298L/L328W | 94.7 | 1.79 | 0 | 0.16 | 0.29 |  |  |  |  |  | 
human IgG2 anti-mouse CD40 surface displayed antibody, V234M/S267E/S298L/L328W |  | 5.13 |  | 0.1 | 0.53 |  |  |  |  |  | 
human IgG2 anti-mouse CD40 surface displayed antibody, G327A/A330R (antibody, name in EU numbering, m1 with these Fc mutations (Eu numbering); copies: 2 + 2) light chain (with the P2A rest): DTVLTQSPALAVSPGERVTISCRASDSVSTLMHWYQQKPGQQPKLLIYLASHLESGVPARFSGSGSGTDFTLTIDPVEADDTATYYCQQSWNDPWTFGGGTKLELKRTVAAPSVFIFPPSDEQLKSGTASVVCLLNNFYPREAKVQWKVDNALQSGNSQESVTEQDSKDSTYSLSSTLTLSKADYEKHKVYACEVTHQGLSSPVTKSFNRGECGSGATNFSLLKQAGDVEENPG heavy chain: EVQLVESDGGLVQPGRSLKLPCAASGFTFSDYYMAWVRQAPTKGLEWVASISYDGSSTYYRDSVKGRFTISRDNAKSTLYLQMDSLRSEDTATYYCGRHSSYFDYWGQGVMVTVSSASTKGPSVFPLAPCSRSTSESTAALGCLVKDYFPEPVTVSWNSGALTSGVHTFPAVLQSSGLYSLSSVVTVPSSNFGTQTYTCNVDHKPSNTKVDKTVERKCCVECPPCPAPPVAGPSVFLFPPKPKDTLMISRTPEVTCVVVDVSHEDPEVQFNWYVDGVEVHNAKTKPREEQFNSTFRVVSVLTVVHQDWLNGKEYKCKVSNKALPRPIEKTISKTKGQPREPQVYTLPPSREEMTKNQVSLTCLVKGFYPSDIAVEWESNGQPENNYKTTPPMLDSDGSFFLYSKLTVDKSRWQQGNVFSCSVMHEALHNHYTQKSLSLSPGKLEPPPSTVSNMATVAVLVVLGAAIVTGAVVAFVMKMRRRNTGGKGGDYALAPGSQTSDLSLPDCKVMVHDPHSLA |  |  |  |  |  |  |  |  |  | 98.3 | 65.8
